In paper PMC11116815:

Molecular target: T1, chemokine (C-C motif) receptor (CCR)1 (human (endogenous in THP-1 and human monocytes)) (UniProt P32246)
T1 sequence: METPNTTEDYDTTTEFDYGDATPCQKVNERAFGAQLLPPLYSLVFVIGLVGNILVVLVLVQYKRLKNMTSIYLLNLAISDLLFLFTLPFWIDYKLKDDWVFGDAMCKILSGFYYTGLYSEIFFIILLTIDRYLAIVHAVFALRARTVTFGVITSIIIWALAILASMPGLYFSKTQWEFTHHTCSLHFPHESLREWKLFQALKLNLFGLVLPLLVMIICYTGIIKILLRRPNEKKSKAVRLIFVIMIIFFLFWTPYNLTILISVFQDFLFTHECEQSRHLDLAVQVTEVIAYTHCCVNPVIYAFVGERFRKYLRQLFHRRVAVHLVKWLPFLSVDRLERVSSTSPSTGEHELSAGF

EC50 of CCL23 for Gαi activation (TRUPATH BRET biosensor: Gαi1-Rluc8, Gβ3, Gγ9-GFP2) in HEK293T cells transfected with untagged CCR1 alone: 0.3 nM
B1: CCL23_(25-99) (ligand)
chain: RFHATSADCCISYTPRSIPCSLLESYFETNSECSKPGVIFLTKKGRRFCANPSDKQVQVCMRMLKLDTRIKTRKN
